According to patent US20030129189A1, “Tumor necrosis factor-gamma” (priority 1994, published 2003):
Like-named read-outs stand apart in the source and are kept apart here. Values belong to the molecule of their own block, whether it stands above or below them.

Legend:
HUVEC cells = test: Induction of TNF-gamma-beta mRNA in HUVEC cells; format: cell-based, human; conditions: for time of peak in expression of TNF-gamma-beta mRNA: after treatment; for TNF-gamma-beta mRNA level: stimulated HUVEC cells
Procedure: More TNF-gamma-beta mRNA was detected than that of TNF-gamma-alpha using both methods.
Total RNA was isolated from human cell lines and primary cells using TriZOL (Invitrogen). TaqMan was carried out in a 25 μl reaction containing 25 ng of total RNA, 0.6 μM each of gene-specific forward and reverse primers and 0.2 μM of gene-specific fluorescence probe. […] Gene-specific PCR products were measured using an ABI PRISM 7700 Sequence Detection System following the manufacturer's instruction (PE Corp.).

TNF-gamma-beta [1] = target: T1, TNF-gamma-beta (Homo sapiens, UniProt O95150); test: Inhibition of TNF-gamma-beta activation of NF-κB in 293T cells; format: cell-based
T1 construct: made in house; host or cells: E. coli (untagged) or 293T (FLAG-tagged)
T1 sequence (O95150 72-251): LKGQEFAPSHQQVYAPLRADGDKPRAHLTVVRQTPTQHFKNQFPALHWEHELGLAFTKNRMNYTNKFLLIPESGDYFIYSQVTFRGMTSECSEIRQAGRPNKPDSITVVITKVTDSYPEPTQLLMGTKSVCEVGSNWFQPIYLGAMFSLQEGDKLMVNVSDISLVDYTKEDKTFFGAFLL
Procedure: To avoid spontaneous apoptosis or NF-κB activation accompanied with DR3 overexpression, a limited amount of DR3-expression DNA that by itself minimally activated these pathways was used.
293T cells were transiently transfected using LipofectAMINE and PLUS reagents according to the manufacturer's instruction (Invitrogen). For reporter assays, 293T cells, at 5×10^5 cells/well, were seeded in 6-well plates and transfected with a total of 1 microgram of DNA. pC4 DNA was used as filler DNA. Conditioned supernatant was collected 24 hr post-transfection and assayed for secreted alkaline phosphatase (SEAP) activity using the Phospha-Light™ chemiluminescent reporter gene assay system (Tropix). pCMV-lacZ was used as internal control for transfection efficiency normalization.

[2] = target: T2, full length TNF-gamma-beta on the cell surface (HEK293F stable transfectants; transfected cells) (human, UniProt O95150 1-251); test: flow cytometry on HEK293F cells expressing full length TNF-gamma-beta
T2 construct: also called TNF-gamma-beta expressing cells
T2 sequence: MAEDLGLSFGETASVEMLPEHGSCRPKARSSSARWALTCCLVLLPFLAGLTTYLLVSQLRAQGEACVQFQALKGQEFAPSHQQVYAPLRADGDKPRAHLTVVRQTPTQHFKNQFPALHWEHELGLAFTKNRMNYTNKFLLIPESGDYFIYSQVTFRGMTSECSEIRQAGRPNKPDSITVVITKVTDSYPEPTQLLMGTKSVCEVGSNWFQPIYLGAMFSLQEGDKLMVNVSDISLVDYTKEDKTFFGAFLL
Procedure: TR6 has been previously described as a decoy receptor (Pitti et al., Nature 396:699-703 (1998); Yu et al., J. Biol. Chem. 274:13733-6 (1999)) capable of competing with Fas and HveA for binding of FasL and LIGHT, respectively.
One million cells, in 0.1 ml of FACS buffer (PBS, 0.1% BSA, 0.1% NaN₃), were incubated with 0.1-1 microgram of protein or antibody at RT for 15 min. The cells were washed with 3 ml of FACS buffer, reacted with biotinylated primary antibody, and stained with PE-conjugated secondary antibody at RT for 15 min. Cells were then washed again, resuspended in 0.5 microgram/ml of propidium iodide, and live cells were gated and analyzed on a FACScan using the CellQuest software (BD Biosciences).

TNF-gamma-beta [3] = target: T3, TNF-gamma-beta (Homo sapiens, UniProt O95150); test: Coimmunoprecipitation of TNF-gamma-beta by TNFR-Fc proteins; format: binding
T3 construct: made in house; host or cells: 293T cells, transient transfection
T3 sequence (O95150 72-251 limits assumed): T1 sequence (O95150 72-251)
Description: The beads were then precipitated and washed extensively with PBST buffer (PBS, 0.5% Triton X-100) before boiled in SDS-sample buffer. Proteins were resolved on 4-20% Tris-Glycine gels (NOVEX), transferred to nitrocellulose membranes, and blotted with anti-Flag M2 monoclonal antibody (1 microgram/ml, Sigma) andhorseradish peroxidase (HRP)-conjugated goat anti-mouse IgG antibody (0.5 microgram/ml).

CB6F1 mice = test: Parent-into-F1 acute graft-versus-host (in vivo MLR) model; set-up: species or system mouse; conditions: 3 mg/kg/day i.v. for 5 days
Procedure: Briefly, CB6F1 mice were injected with 1.5×10^8 pooled spleen cells of C57BL/6 mice administered intravenously on day 0.
The F1 (CB6F1) of C57BL/6×BALB/c mice (H-2^bxd) were transfused intravenously with 1.5×10^8 spleen cells from C57BL/6 mice (H-2^b) on day 0. […] The spleens of the recipient F1 mice were harvested on day 5, weighed and single cell suspensions prepared for in vitro assays.
Splenocytes from normal and the transfused F1 mice were cultured in triplicate in 96-well flat-bottomed plates (4×10^5 cells/200 microliters/well) for 2-4 days. After removing 100 microliters of supernatant per well on the day of harvest, 10 microliters Alamar Blue (Biosource) was added to each well and the cells cultured for additional 4 h. The cell number in each well was assessed according to OD590 nm minus OD530 nm background, using a CytoFluor apparatus (PerSeptive Biosystems). Cytokines in the culture supernatant were measured with commercial ELISA kits from Endogen or R & D Systems following manufacturer's instructions.

Molecule: CCCCCCCCCCCCCC(=O)O[C@@H]1[C@@H](C)[C@@]2(O)[C@@H](C=C(CO)C[C@]3(O)C(=O)C(C)=C[C@@H]23)[C@@H]2C(C)(C)[C@]12OC(C)=O [PMA, reference compound]
- time of peak in expression of TNF-gamma-beta mRNA (HUVEC cells): 6 h
- TNF-gamma-beta mRNA level (HUVEC cells): rapidly induced high levels of TNF-gamma-beta mRNA

- inhibition of TNF-gamma-beta activation of NF-κB (TNF-gamma-beta [1]): not able to inhibit
Molecule: TNFR1.Fc: Fc-fusion of TNFR1, control receptor [reference compound]
- inhibition of TNF-gamma-beta activation of NF-κB (TNF-gamma-beta [1]; listed as TNFR1-Fc): but not by the addition of Fas-Fc or TNFR1-Fc

Molecule: bFGF: growth factor stimulus of HUVEC cells [reference compound]
- TNF-gamma-beta mRNA level (HUVEC cells): did not significantly affect the expression of TNF-gamma-beta

- binding result [2]: no binding
B1: Fc-fusion form of the extracellular domain of RANK (Fc fusion, UniProt Q9Y6Q6 30-212, looked up)
chain: IAPPCTSEKHYEHLGRCCNKCEPGKYMSSKCTTTSDSVCLPCGPDEYLDSWNEEDKCLLHKVCDTGKALVAVVAGNSTTPRRCACTAGYHWSQDCECCRRNTECAPGLGAQHPLQLNKDTVCKPCLAGYFSDAFSSTDKCRPWTNCTFLGKRVEHHGTEKSDAVCSSSLPARKPPNEPHVYLP
notes: extracellular domain; not shown: Fc part of the fusion

B2: TACI-Fc: extracellular domain of TACI (aa 1-159) fused to Fc of human IgG1 (protein)
chain: MSGLGRSRRGGRSRVDQEERFPQGLWTGVAMRSCPEEQYWDPLLGTCMSCKTICNHQSQRTCAAFCRSLSCRKEQGKFYDHLLRDCISCASICGQHPKQCAYFCENKLRSPVNLPPELRRQRSGEVENNSDNSGRYQGLEHRGSEASPALPGLKLSADQ
modifications: left off: a dimerising Fc or GST
notes: extracellular domain of TACI (aa 1-159) fused to Fc of human IgG1
- immunoprecipitation of TNF-gamma-beta (TNF-gamma-beta [3]): could not immunoprecipitate FLAG-TNF-gamma-beta

- binding result [2]: no binding
B3: Fc-fusion form of the extracellular domain of DcR1 (Fc fusion, UniProt O14798 26-221, looked up)
chain: ATTARQEEVPQQTVAPQQQRHSFKGEECPAGSHRSEHTGACNPCTEGVDYTNASNNEPSCFPCTVCKSDQKHKSSCTMTRDTVCQCKEGTFRNENSPEMCRKCSRCPSGEVQVSNCTSWDDIQCVEEFGANATVETPAAEETMNTSPGTPAPAAEETMNTSPGTPAPAAEETMTTSPGTPAPAAEETMTTSPGTPA
notes: as for B1

B4: TL5: another TNF family ligand used here as a control (protein, UniProt O43557 83-240, looked up)
Tumor necrosis factor ligand …: LIQERRSHEVNPAAHLTGANSSLTGSGGPLLWETQLGLAFLRGLSYHDGALVVTKAGYYYIYSKVQLGGVGCPLGLASTITHGLYKRTPRYPEELELLVSQQSPCGRATSSSRVWWDSSFLGGVVHLEAGEKVVVRVLDERLVRLRDGTRSYFGAFMV
- IL-2 production vs buffer group (CB6F1 mice): neither TNF-gamma-beta nor TL5 show any significant effect
- IL-12 production vs buffer group (CB6F1 mice): neither TNF-gamma-beta nor TL5 show any significant effect
- spleen weight vs buffer group (CB6F1 mice): no statistically significant difference from buffer group
- spontaneous (ex-vivo) splenocyte proliferation vs buffer group (CB6F1 mice): no statistically significant difference from buffer group
- GM-CSF production vs buffer group (CB6F1 mice; splenocytes): no statistically significant difference from buffer group
- INF-gamma production vs buffer group (CB6F1 mice; splenocytes): no statistically significant difference from buffer group

- binding result [2]: no binding
B5: Fc-fusion form of the extracellular domain of DcR2 (Fc fusion, UniProt Q9UBN6 56-211, looked up)
chain: ATIPRQDEVPQQTVAPQQQRRSLKEEECPAGSHRSEYTGACNPCTEGVDYTIASNNLPSCLLCTVCKSGQTNKSSCTTTRDTVCQCEKGSFQDKNSPEMCRTCRTGCPRGMVKVSNCTPRSDIKCKNESAASSTGKTPAAEETVTTILGMLASPYH
notes: as for B1

- binding result [2]: no binding
B6: Fc-fusion form of the extracellular domain of OX40 (Fc fusion, UniProt P43489 29-214, looked up)
chain: LHCVGDTYPSNDRCCHECRPGNGMVSRCSRSQNTVCRPCGPGFYNDVVSSKPCKPCTWCNLRSGSERKQLCTATQDTVCRCRAGTQPLDSYKPGVDCAPCPPGHFSPGDNQACKPWTNCTLAGKHTLQPASNSSDAICEDRDPPATQPQETQGPPARPITVQPTEAWPRTSQGPSTRPVEVPGGRA
notes: as for B1

B7: IFNγ: cytokine stimulus of HUVEC cells (protein, UniProt P01579 24-161, looked up)
Interferon gamma: QDPYVKEAENLKKYFNAGHSDVADNGTLFLGILKNWKEESDRKIMQSQIVSFYFKLFKNFKDDQSIQKSVETIKEDMNVKFFNSNKKKRDDFEKLTNYSVTDLNVQRKAIHELIQVMAELSPAAKTGKRKRSQMLFRG
- TNF-gamma-beta mRNA level (HUVEC cells): did not significantly affect the expression of TNF-gamma-beta

- binding result [2]: no binding
B8: Fc-fusion form of the extracellular domain of AITR (Fc fusion, UniProt Q9Y5U5 26-162, looked up)
chain: QRPTGGPGCGPGRLLLGTGTDARCCRVHTTRCCRDYPGEECCSEWDCMCVQPEFHCGDPCCTTCRHHPCPPGQGVQSQGKFSFGFQCIDCASGTFSGGHEGHCKPWTDCTQFGFLTVFPGNKTHNAVCVPGSPPAEP
notes: as for B1

- binding result [2]: no binding
B9: TNFR1-Fc (Fc fusion, UniProt P19438 30-211, looked up)
chain: LVPHLGDREKRDSVCPQGKYIHPQNNSICCTKCHKGTYLYNDCPGPGQDTDCRECESGSFTASENHLRHCLSCSKCRKEMGQVEISSCTVDRDTVCGCRKNQYRHYWSENLFQCFNCSLCLNGTVHLSCQEKQNTVCTCHAGFFLRENECVSCSNCKKSLECTKLCLPQIENVKGTEDSGTT
notes: extracellular domain; also called Fc-fusion form of the extracellular domain of TNFR1; not shown: Fc part of the fusion

B10: IL-1α: cytokine stimulus of HUVEC cells (protein, UniProt P01583 113-271, looked up)
Interleukin-1 alpha: SAPFSFLSNVKYNFMRIIKYEFILNDALNQSIIRANDQYLTAAALHNLDEAVKFDMGAYKSSKDDAKITVILRISKTQLYVTAQDEDQPVLLKEMPEIPKTITGSETNLLFFWETHGTKNYFTSVAHPNLFIATKQDYWVCLAGGPPSITDFQILENQA
- time of peak in expression of TNF-gamma-beta mRNA (HUVEC cells): 6 h
- TNF-gamma-beta mRNA level (HUVEC cells): rapidly induced high levels of TNF-gamma-beta mRNA

B11: Fas-Fc: extracellular domain of Fas (aa 1-169) fused to Fc of human IgG1 (protein)
chain: QVTDINSKGLELRKTVTTVETQNLEGLHHDGQFCHKPCPPGERKARDCTVNGDEPDCVPCQEGKEYTDKAHFSSKCRRCRLCDEGHGLEVEINCTRTQNTKCRCKPNFFCNSTVCEHCDPCTKCEHGIIKECTLTSNTKCKEEG
modifications: left off: a dimerising Fc or GST
notes: extracellular domain of Fas (aa 1-169) fused to Fc of human IgG1
- immunoprecipitation of TNF-gamma-beta (TNF-gamma-beta [3]): could not immunoprecipitate FLAG-TNF-gamma-beta
- inhibition of TNF-gamma-beta activation of NF-κB (TNF-gamma-beta [1]): but not by the addition of Fas-Fc or TNFR1-Fc
